Assay results: the supplement of paper PMC10126150
± gives the standard deviation of the averaged measurements.

What follows are sequences tested on ATP (assay: switch fluorescence ratio, 500 uM ATP over buffer (Cy3 cluster intensity, sum of 5 cycles each) (fold (ratio)); higher = stronger signal-on switching upon ATP binding; sequences stand for … in TCGTCGGCAGCGTCAGATGTGTATAAGAGACAGTTTTTTTTTTTTTTTTTTTTTTTTT…TC). Details: aptamer strand: ATP DNA aptamer (quencher-CACCTGGGGGAGTATTGCGGAGGAAGG + anchor), 100 nM annealed; ATP concentration: 500 uM.
In short: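 After annealing to 100 nM quencher-labelled ATP aptamer, Cy3-labelled switching-strand clusters on a modified Illumina MiSeq flow-cell were imaged in selection buffer. A second image followed after 15 min with 500 uM ATP at 22 °C, and five such buffer/ATP cycles were done, each separated by NaOH stripping and re-annealing. The fluorescence ratio, averaged per switch-domain sequence, is summed target-cycle over summed buffer-cycle Cy3 intensity per cluster, with clusters outside 100-1000 RFU excluded.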
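Also: ATP exposure 15 min at 22 °C before imaging.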

| Sequence | switch fluorescence ratio |
| --- | --- |
| GGGGTTCTGA | 0.974 ± 0.032 |
| GGGGTTGGAA | 0.9873 ± 0.0056 |
| GGGGTTGGG | 1.015 ± 0.0031 |
| GGGGTTGGGC | 1 ± 0.028 |
| GGGGTTGTAA | 0.9938 ± 0.0056 |
| GGGGTTTACT | 1.01 ± 0.021 |
| GGGGTTTGCT | 0.973 ± 0.033 |
| GGGGTTTGTA | 0.98 ± 0.027 |
| GGGGTTTTCC | 1.01 ± 0.014 |
| GGGGTTTTTA | 0.995 ± 0.034 |
| GGGTAAGATG | 0.992 ± 0.016 |
| GGGTAAGGTG | 1.3 ± 0.091 |
| GGGTAAGGTT | 0.985 ± 0.028 |
| GGGTAAGTTG | 0.962 ± 0.05 |
| GGGTAATAAA | 1.019 ± 0.0052 |
| GGGTACCTGT | 1.01 ± 0.034 |
| GGGTACTAGT | 1.05 ± 0.023 |
| GGGTACTGAT | 1.01 ± 0.024 |
| GGGTACTTTT | 1 ± 0.0091 |
| GGGTAGAGGA | 0.99 ± 0.03 |
| GGGTAGAGTG | 1.006 ± 0.0019 |
| GGGTAGCTAT | 0.9739 ± 0.0049 |
| GGGTAGGGGC | 1.02 ± 0.026 |
| GGGTAGTGTA | 0.995 ± 0.012 |
| GGGTATAACG | 0.974 ± 0.035 |
| GGGTATAGTT | 0.992 ± 0.024 |

| Sequence | switch fluorescence ratio |
| --- | --- |
| GGGTATCGAG | 1.01 ± 0.019 |
| GGGTATGAGG | 0.976 ± 0.032 |
| GGGTATGCAA | 1.001 ± 0.0093 |
| GGGTATGCGA | 0.984 ± 0.015 |
| GGGTATGGAG | 1.02 ± 0.02 |
| GGGTATGGGA | 0.99 ± 0.017 |
| GGGTATGGGC | 0.955 ± 0.014 |
| GGGTATGTGA | 0.961 ± 0.037 |
| GGGTATTACT | 1.03 ± 0.017 |
| GGGTATTATA | 0.996 ± 0.03 |
| GGGTATTATG | 1.02 ± 0.028 |
| GGGTCAATAG | 1.42 ± 0.051 |
| GGGTCACGTT | 0.997 ± 0.032 |
| GGGTCAGACG | 1.06 ± 0.086 |
| GGGTCATTAA | 0.9905 ± 0.0088 |
| GGGTCCAGGG | 1.228 ± 0.0082 |
| GGGTCCTACG | 1.12 ± 0.037 |
| GGGTCGGATG | 1.03 ± 0.033 |
| GGGTCGGGGC | 1.02 ± 0.017 |
| GGGTCGGGGG | 0.994 ± 0.04 |
| GGGTCTAATT | 0.9917 ± 0.0014 |
| GGGTCTCGTT | 1.01 ± 0.013 |
| GGGTCTGACT | 0.9998 ± 0.0017 |
| GGGTCTGTAA | 1.42 ± 0.61 |
| GGGTCTTGGG | 0.9482 ± 0.008 |
| GGGTGAAACA | 0.987 ± 0.069 |

| Sequence | switch fluorescence ratio |
| --- | --- |
| GGGTGAAAGC | 1 ± 0.017 |
| GGGTGAACTC | 0.988 ± 0.031 |
| GGGTGACGAG | 1 ± 0.038 |
| GGGTGACGCG | 1.01 ± 0.022 |
| GGGTGATCCT | 1.02 ± 0.073 |
| GGGTGATGGG | 0.977 ± 0.032 |
| GGGTGCAGGC | 0.675 ± 0.032 |
| GGGTGCATAG | 1.03 ± 0.045 |
| GGGTGCCAGT | 0.963 ± 0.011 |
| GGGTGCCGGG | 0.911 ± 0.12 |
| GGGTGCCGTG | 1.03 ± 0.047 |
| GGGTGCGCGT | 0.977 ± 0.011 |
| GGGTGCGGAG | 0.956 ± 0.035 |
| GGGTGCGGCG | 0.968 ± 0.035 |
| GGGTGCTTTG | 1.02 ± 0.029 |
| GGGTGGAAAG | 0.984 ± 0.041 |
| GGGTGGCCTA | 1 ± 0.015 |
| GGGTGGCGCC | 0.988 ± 0.012 |
| GGGTGGGAGT | 1.026 ± 0.0097 |
| GGGTGGGATT | 0.986 ± 0.018 |
| GGGTGGGCGC | 1.01 ± 0.058 |
| GGGTGGGGAA | 0.963 ± 0.075 |
| GGGTGGGGTT | 0.991 ± 0.017 |
| GGGTGGTTGG | 0.999 ± 0.0088 |
| GGGTGTAATT | 1 ± 0.016 |
| GGGTGTACAA | 0.98 ± 0.019 |

| Sequence | switch fluorescence ratio |
| --- | --- |
| GGGTGTACGG | 1.04 ± 0.024 |
| GGGTGTATGG | 0.981 ± 0.012 |
| GGGTGTGAAC | 0.9859 ± 0.0046 |
| GGGTGTGGAC | 1.04 ± 0.023 |
| GGGTGTGGAG | 1.01 ± 0.012 |
| GGGTGTGGTA | 0.9967 ± 0.0096 |
| GGGTGTTCTG | 1.01 ± 0.018 |
| GGGTGTTGCT | 1 ± 0.017 |
| GGGTGTTTGG | 1.03 ± 0.026 |
| GGGTTAAGTT | 1 ± 0.027 |
| GGGTTAATAT | 1.04 ± 0.055 |
| GGGTTAATCT | 0.9983 ± 0.0016 |
| GGGTTAATTC | 1.03 ± 0.088 |
| GGGTTACTGT | 0.985 ± 0.012 |
| GGGTTAGGAT | 0.98 ± 0.029 |
| GGGTTAGGTC | 1.02 ± 0.013 |
| GGGTTAGTAG | 1 ± 0.017 |
| GGGTTAGTGG | 0.976 ± 0.032 |
| GGGTTATGAA | 0.994 ± 0.022 |
| GGGTTATGGT | 0.998 ± 0.028 |
| GGGTTATTGG | 0.991 ± 0.04 |
| GGGTTATTTC | 1.02 ± 0.023 |
| GGGTTCAAAG | 0.9818 ± 0.006 |
| GGGTTCAAGG | 0.995 ± 0.048 |
| GGGTTCAGGT | 1.0068 ± 0.00055 |
| GGGTTCAGTG | 0.982 ± 0.026 |

| Sequence | switch fluorescence ratio |
| --- | --- |
| GGGTTCATGG | 1.01 ± 0.047 |
| GGGTTCATTT | 1.019 ± 0.0015 |
| GGGTTCCAGG | 1.26 ± 0.098 |
| GGGTTCGGTG | 1.01 ± 0.039 |
| GGGTTCTATT | 1 ± 0.014 |
| GGGTTCTTC | 1.05 ± 0.1 |
| GGGTTCTTGT | 1.04 ± 0.057 |
| GGGTTCTTTA | 0.997 ± 0.048 |
| GGGTTGACCT | 1.07 ± 0.067 |
| GGGTTGAGGT | 0.9843 ± 0.0092 |
| GGGTTGATAG | 1.01 ± 0.021 |
| GGGTTGATCG | 0.9875 ± 0.0046 |
| GGGTTGCAAC | 1.24 ± 0.32 |
| GGGTTGCTGG | 1 ± 0.03 |
| GGGTTGCTTA | 0.99 ± 0.023 |
| GGGTTGGAAT | 0.9878 ± 0.003 |
| GGGTTGGGG | 0.995 ± 0.048 |
| GGGTTGGGGA | 1.01 ± 0.025 |
| GGGTTGTCTG | 0.961 ± 0.063 |
| GGGTTGTTGC | 1 ± 0.037 |
| GGGTTTAGAC | 0.982 ± 0.032 |
| GGGTTTATCT | 0.986 ± 0.039 |
| GGGTTTCGAA | 0.9702 ± 0.0018 |
| GGGTTTCGAG | 1.04 ± 0.016 |
| GGGTTTCGAT | 0.984 ± 0.024 |
| GGGTTTCGTG | 0.993 ± 0.015 |

| Sequence | switch fluorescence ratio |
| --- | --- |
| GGGTTTCTCT | 0.994 ± 0.032 |
| GGGTTTGAGA | 1.005 ± 0.0042 |
| GGGTTTGGGG | 0.988 ± 0.022 |
| GGGTTTGTA | 0.965 ± 0.04 |
| GGGTTTGTAC | 1.13 ± 0.12 |
| GGGTTTGTGT | 1.01 ± 0.019 |
| GGGTTTTATT | 0.981 ± 0.036 |
| GGGTTTTCGA | 1.014 ± 0.0011 |
| GGGTTTTCGT | 0.9538 ± 0.0032 |
| GGGTTTTTAC | 1.03 ± 0.033 |
| GGGTTTTTGG | 0.997 ± 0.032 |
| GGGTTTTTTT | 0.998 ± 0.044 |
| GGTAAAAGTC | 1.01 ± 0.012 |
| GGTAAAGCAT | 1.027 ± 0.006 |
| GGTAACGTTC | 0.989 ± 0.015 |
| GGTAAGGGGA | 0.991 ± 0.033 |
| GGTAAGTGTT | 1.003 ± 0.0044 |
| GGTAATAGAG | 0.987 ± 0.05 |
| GGTAATGGCA | 1.01 ± 0.039 |
| GGTAATTTAG | 1.02 ± 0.015 |
| GGTAATTTGA | 0.989 ± 0.024 |
| GGTAATTTTC | 1.11 ± 0.18 |
| GGTACAAGG | 1.01 ± 0.029 |
